Reference: PMC6130882 (PLoS Pathogens, 2018)

How the values were obtained:
[1] = biological target: recombinant A244 gp120 (subtype A/E, GSID) (HIV-1 A244 (subtype A/E)); experiment: SPR
[2] = biological target: synthetic cyclic 42 amino acid V2 peptide of 92TH023 gp120 (HIV-1 92TH023 (subtype A/E)); experiment: SPR
[3] = biological target: recombinant SIVmac766 gp120 (SIVmac766); experiment: SPR
[4] = biological target: deglycosylated 92TH023 V1/V2 tag scaffold (HIV-1 92TH023 (subtype A/E)); experiment: static cell adhesion assay
[5] = biological target: synthetic cyclic 42 amino acid V2 peptide of 92TH023 gp120 (HIV-1 92TH023 (subtype A/E)); experiment: static cell adhesion assay; RPMI8866 cells on immobilised MAdCAM or cV2 92TH023 in buffer with a high concentration of MgCl2
[6] = biological target: T1, recombinant soluble α4β7 heterodimer (human, UniProt P13612 35-977; P26010 20-723, disulfide bond joining the acid-base clasp | disulfide bond joining the acid-base clasp); experiment: SPR; conditions: both partners purified
T1 construct: also called integrin α4β7; not shown: acid coiled-coil clasp peptide, C-terminal, kept; base coiled-coil clasp peptide, C-terminal, kept

Question: How did the Kd [1] turn out when “recombinant soluble α4β7 heterodimer (from UniProt P13612 35-977; P26010 20-723) (complex)” was run?
Answer: Its Kd is 7.14 nM.

Question: What about the Kd [2] of the same molecule?
Answer: Its Kd is 1.15 nM.

Question: And the Kd [3]?
Answer: The Kd was 104 nM.

Question: What does the source list for “integrin α4β7 expressed on the surface of RPMI8866 cells (from UniProt P13612 34-1032; P26010 20-798) (receptor)”?
Answer: fold adhesion against deglycosylated 92TH023 V1/V2 1FD6 [4]: 5 fold; fold reduction of adhesion in MgCl2 against MnCl2 [5]: 2.5 fold

Question: For “soluble α4β1 (from UniProt P13612 35-977; P05556 21-728) (complex)”, which Kd [2] is on record?
Answer: Its Kd is 9710 nM.

B1: MAdCAM-Ig fusion protein (Fc fusion, human, UniProt Q13477 19-317, looked up)
chain: QSLQVKPLQVEPPEPVVAVALGASRQLTCRLACADRGASVQWRGLDTSLGAVQSDTGRSVLTVRNASLSAAGTRVCVGSCGGRTFQHTVQLLVYAFPDQLTVSPAALVPGDPEVACTAHKVTPVDPNALSFSLLVGGQELEGAQALGPEVQEEEEEPQGDEDVLFRVTERWRLPPLGTPVPPALYCQATMRLPGLELSHRQAIPVLHSPTSPEPPDTTSPESPDTTSPESPDTTSQEPPDTTSPEPPDKTSPEPAPQQGSTHTPRSPGSTRTRRPEISQAGPTQGEVIPTGSSKPAGDQ
notes: also called Hu-MAdCAM-Ig; MAdCAM-1
Question: B1 was tested. Which Kd [6] did it give?
Answer: The Kd was 0.597 nM.
